Values of other authors, collected in paper PMC2879464.
pKd: −log10 of the molar value. Where two headings read alike, the source gives them in different places.

What was measured:
cortactin (Homo sapiens) [1] = molecular target: cortactin (Homo sapiens) (UniProt Q14247)
cortactin (Homo sapiens) [2] = molecular target: cortactin (Homo sapiens) (UniProt Q14247); remark: listed apart in the source

UniProt Q14247, sequence (Q14247 whole entry): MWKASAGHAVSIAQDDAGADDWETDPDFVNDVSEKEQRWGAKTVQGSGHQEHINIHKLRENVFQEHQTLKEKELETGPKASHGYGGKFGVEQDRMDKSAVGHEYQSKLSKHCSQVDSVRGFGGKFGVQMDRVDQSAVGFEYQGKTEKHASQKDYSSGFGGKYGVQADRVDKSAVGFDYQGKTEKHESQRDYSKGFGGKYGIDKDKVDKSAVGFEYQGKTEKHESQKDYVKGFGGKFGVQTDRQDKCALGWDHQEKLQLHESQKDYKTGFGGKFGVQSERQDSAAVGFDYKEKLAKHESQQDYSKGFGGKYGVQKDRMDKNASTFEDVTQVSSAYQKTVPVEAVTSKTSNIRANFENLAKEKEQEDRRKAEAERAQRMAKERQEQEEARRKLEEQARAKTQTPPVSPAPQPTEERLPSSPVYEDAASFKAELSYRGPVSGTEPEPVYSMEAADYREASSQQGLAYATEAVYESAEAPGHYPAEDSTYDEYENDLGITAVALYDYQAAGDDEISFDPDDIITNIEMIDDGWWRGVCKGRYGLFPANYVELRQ

Substance	pKd (cortactin (Homo sapiens) [1])	pKd (cortactin (Homo sapiens) [2])
nmMLCK1 (from UniProt Q15746)	6.00	–
nmMLCK2 (from UniProt Q15746)	–	6.60
